No end group written: not given here. *: point of attachment. FITC = O=C1OC2(c3ccc(O)cc3Oc3cc(O)ccc32)c2ccc(NC(=S)*)cc21
Columns and labels:
[1] = molecular target: T1, HLA-A*02:01 MHC Class I complex (recombinant, biotinylated) (human, biotinylated (lysine of a C-terminal BirA recognition sequence)); experiment: loading into HLA-A*02:01 and catalysed peptide exchange test
T1 construct: Bought as a peptide-loaded complex (Biolegend or other maker); also called pHLA (when loaded with peptide)

[2] = molecular target: T1, HLA-A*02:01 MHC Class I complex …; experiment: pMHC on streptavidin beads held in T cell culture media at 37 C for 0-48 h; APC W6/32 staining, flow cytometry MFI fitted to an exponential decay

Q: Does GAATK(FITC)MAAV [EP5 GAATKMAAV (SEQ ID NO: 13), FITC-labelled in-place peptide GAAT{Lys(FITC)}MAAV] bind [1]?
A: binds

B1: SLYSYFQKV (SEQ ID NO: 5), SLC45A2-derived peptide (peptide)
peptide: SLYSYFQKV
notes: also called Immunogenic SLC45A2-derived peptide; SLC45A2 antigen peptide
Q: B1 was tested. Which “half-life of the complex” value [2] did it give?
A: ~17 h

B2: SLLPIMWQLY (SEQ ID NO: 6), TCL1-derived peptide (peptide)
peptide: SLLPIMWQLY
notes: also called Non-Immunogenic TCL1-derived peptide
Q: With B2 as the binder, how does the “half-life of the complex” value [2] read?
A: ~0.5 h

From patent publication US20240272171A1 (PHENOMEX, published 2024)
